# Test results reported in the RNAGym collection of RNA variant scans (doi:10.1073/pnas.2313332121).
# Variants at the floor of the assay were thinned out.
# B1: TPR 5TU (parent)
# chain: GGAUCUUCUCGAUCUAACAAAAAAGACAAAUCUGCCACAAAGCUUGAGAGCAUCUUCGGAUGCAGAGGCGGCAGCCUUCGGUGGCGCGAUAGCGCCAACGUUCUCAACUAUGACACGCAAAACGCGUGCUCCGUUGAAUGGAGUUUAUCAUG
# Variants of: B1
# Test: polymerase ribozyme fitness, log enrichment relative to wild type (log ratio); higher = more active; in vitro selection for triplet polymerase activity
# Outline: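 Fitness is a logarithmic measure of how a genotype enriched relative to the wild type, with replicate averages weighted by inverse variance. The logarithm uses base 2, and enrichment came from Illumina sequencing of input and output libraries. Those libraries were PCR-built, transcribed mutants of each subunit of a heterodimeric triplet polymerase ribozyme, passed through one triplicate in vitro selection round that included frozen incubation at −7 °C, gel excision of extended constructs and streptavidin-bead capture. Genotypes were kept only if they had ≥10 input reads and ≥1 read per output.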
row,Variant,polymerase ribozyme fitness (log ratio)
1,A52C U56A C75U A89U U90G C95G C123G C125A,≤ -4.2
2,A52U C85G C123A G140A,≤ -4.2
3,A52G C69G G71C,-2.11
4,G50C C57G C118G,-3.68
5,A52G C85G G141A,-1.37
6,C51A G59U A64G C85U C99G A113G A120G U127G G140U U148A,≤ -4.2
7,A52C G59U,-0.875
8,A52U C57A C63U G94U A150G,≤ -4.2
9,C51U C118U,-0.957
10,A52U C57G G58A C95U C123U G126U A138U,≤ -4.2
11,A52G G92A A113U,-3.81
12,G50U C95U,-0.241
13,G50C G65C G68A G86U A147G,≤ -4.2
14,A52G C57G C76U G92U U148A,-4.19
15,A52C G83U U145A,-1.8
16,A52G G58A C72A G83U C96U,≤ -4.2
17,U53A C96U C118A,-1.21
18,C51G A52U C63A A138U,≤ -4.2
19,A52G A119G,-0.813
20,A52C C95A C132G G141A A150G,≤ -4.2
21,A52G G117U,0.374

row,Variant,polymerase ribozyme fitness (log ratio)
1,A52G G117A,-0.121
2,G50C G86A U102A G143U,≤ -4.2
3,U53A A122U A138U,-4.07
4,C51A C76A G86A,≤ -4.2
5,U53A C105A,-2.83
6,A52G C96G,-2.13
7,C51G G88A A91G A115U U144G U151C,≤ -4.2
8,A52U C93A U109C U111G G140C G152A,≤ -4.2
9,G50U G81A C93G,-3.96
10,A52U U82G,-1.46
11,A52C G92U C116G,-1.7
12,A52U G59A U82G U145A U146C,-0.208
13,A52G C85U U104G,-0.901
14,U53A C57G C75G G83C U102A A121U U144A U145C,≤ -4.2
15,A52G U53A G83U,-2.28
16,A52C C96U,-1.77
17,G50U G58A G84U C105U G133A G141C,≤ -4.2
18,G50U G140U,-3.88
19,A52U G81U C96U C114A A142U,-3.93
20,A52C U102G A147U,-3.59
21,A52C U56C G84U,-4.01

row,Variant,polymerase ribozyme fitness (log ratio)
1,A52U G86C G88A C105A G141U,≤ -4.2
2,A52G G83C C129A,-2.88
3,C51U U53A C93A,-4.05
4,C51U C96A A121C U134A,-3.19
5,A52U U55G C76U,-4.08
6,A52G U53A C85A U111G,≤ -4.2
7,C51G G81U C96U,-1.16
8,C51U U56A G65U G81C G136C A138G G141C A142G,≤ -4.2
9,C51A A60G G124U,-1.75
10,A52C G92U,-1.12
11,G50U G83A U146C A147C,-2.91
12,A52G C54U C93A,-1.98
13,A52G U53G U77G C131G,≤ -4.2
14,U53A C69U,-4.11
15,C51U G67C U135C,≤ -4.2
16,A52U C118U,-1.14
17,G50C C116A U144A C149G,≤ -4.2
18,C51U U127A A142G,-4.07
19,A52U C76U A150U,-1.19
20,U53A A91C C96U,≤ -4.2
21,C51U U55C A106G U151G,≤ -4.2

row,Variant,polymerase ribozyme fitness (log ratio)
1,G50C U56A G62C C72U C95U,≤ -4.2
2,A52U G140C,≤ -4.2
3,A52U G58U C95U,-1.52
4,C51A A91G C95U A97G A119U,≤ -4.2
5,C51A U101C C123A,-2.09
6,A52U U53A U101G,-2.73
7,A52G G74A C87U C131U A142G,-3.99
8,U53A C54A G59U A64U C93G A137C,≤ -4.2
9,G50C C75G,≤ -4.2
10,A52G C85U G92A C96A,≤ -4.2
11,A52G G84U C118G G128A U144G U145A,≤ -4.2
12,G50U U78C,-2.27
13,A52G G65A U145A,-1.38
14,C51U A150G,-1.14
15,C51U C57A G84A U109G C123A,-1.74
16,G50C C93G C99G G126U,≤ -4.2
17,C51G A73G G94U C95U C118A A142U G152A,≤ -4.2
18,C51G U53C U77C C95A,≤ -4.2
19,U53A A64G C103G G124A,≤ -4.2
20,U53A C93A C95G,≤ -4.2
21,C51G G71A A122G,≤ -4.2
